In data set [1] the target is T1, GST-RBAP-1 (E2F-1) (UniProt Q01094 Q01094:1-437). Briefly: competition; competitor vs labelled IRE-A. Conditions: tags: GST fusion, bacterial expression, glutathione Sepharose purified; label: 32P when used as probe. The protocol: (§1) FIG. 4C is an electrophoretic mobility shift assay showing IRP-A and GST-RBAP-1 complexes with IRE-A DNA. GST-RBAP-1 (lanes 1–3) or nuclear proteins isolated from fasted-refed liver nuclear extract (lanes 4–6) were incubated with ^32P-labelled IRE-A DNA in the presence of: lanes 1 and 4, mutant IRE-A DNA (GC→TA); lanes 2 and 5, wild-type E2 DNA; and, lanes 3 and 6, mutant E2 DNA (GC→TA) as described above.
(§2) The EMSA procedure has been described previously (Nasrin, et al., Proc. Natl. Acad. Sci. USA, 87:5273–5277, 1990). Nuclear extract or GST-RBAP-1 was incubated with 0.25–0.5 ng of ^32P-labelled oligo in 20 μl of binding buffer containing 10 mM HEPES (pH 7.9), 0.1 mM EDTA, 10 mM MgCl_2, 5 mM KCl, 150 mM NaCl, 25 mM DTT and 250 ng of poly(dI)poly(dC). The reaction products were separated at 4° C. in a 4.5% polyacrylamide gel run in 50 mM Tris-HCL (pH 8.5), 380 mM glycine and 2 mM EDTA. The gel was dried and exposed to film. The sequences of the oligonucleotides used to characterize IRE-A-like and E2F-like DNA binding activities are shown. Cognate E2F sites include E2F wild-type, 5'-[…]-[…]-3' (SEQ ID NO: 4); E2F mutant, 5'-ATT-[…]-3' (SEQ ID NO: 5); DRTF wild-type, 5'-[…]-3' (SEQ ID NO: 6). The GAPDH IRE-A used for gel shifts included nucleotides −487 to −408 of the promoter (Nasrin, et al., Proc. Natl. Acad. Sci. USA, 87:5273–5277, 1990). […]

Data set [2] has as its target T1, GST-RBAP-1 (E2F-1). Briefly: competition; mutant competitor vs labelled IRE-A. Conditions: tags: GST fusion, bacterial expression, glutathione Sepharose purified. The procedure: as §1, §2
The target of the next data set is E2F-1 (UniProt Q01094 Q01094:1-437). Description: cell_activity; CAT stimulation by CMV-E2F in L6 muscle cells; tetramer on minimal GAPDH promoter. To be noted: tags: CMV-E2F expression plasmid.
Chain of E2F-1 (Q01094 whole entry, one chain of several): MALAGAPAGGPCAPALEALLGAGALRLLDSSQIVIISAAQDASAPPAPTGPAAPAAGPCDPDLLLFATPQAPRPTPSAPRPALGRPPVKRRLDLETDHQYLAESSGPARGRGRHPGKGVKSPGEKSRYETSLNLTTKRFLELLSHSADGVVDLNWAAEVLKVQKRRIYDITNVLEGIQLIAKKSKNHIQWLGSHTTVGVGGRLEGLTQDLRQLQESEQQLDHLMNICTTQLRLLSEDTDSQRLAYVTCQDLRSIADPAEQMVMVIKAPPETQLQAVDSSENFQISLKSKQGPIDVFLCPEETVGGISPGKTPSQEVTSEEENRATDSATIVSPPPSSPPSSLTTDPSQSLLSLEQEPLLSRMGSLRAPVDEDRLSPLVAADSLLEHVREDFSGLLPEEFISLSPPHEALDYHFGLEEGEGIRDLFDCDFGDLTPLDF

T1 sequence (Q01094 whole entry, the tested form may be a part, one chain of several): as the sequence (Q01094 whole entry, one chain of several) above

B1: E2 (cognate E2F site) wild-type (dsDNA)
DNA 1: ATTTAAGTTTCGCGCCCTTTCTCAA
DNA 2: TTGAGAAAGGGCGCGAAACTTAAAT
For the molecule B1, in the data set with GST-RBAP-1 (E2F-1) [1], the binding result was “binds”.

B2: E2 mutant (GC to TA) (dsDNA)
DNA 1: ATTTAAGTTTCGATCCCTTTCTCAA
DNA 2: TTGAGAAAGGGATCGAAACTTAAAT
Regarding B2, the binding result in the data set with GST-RBAP-1 (E2F-1) [2] is given as “no binding”.

B3: IRE-A minimal motif tetramer-CAT (dsDNA)
DNA 1: AAGTTCCCCAACTTTCCCGCCTCTCAGCCTTTGAAAG
DNA 2: CTTTCAAAGGCTGAGAGGCGGGAAAGTTGGGGAACTT
With B3, in the data set with E2F-1, the activity amounted to 7 fold.

The values are drawn from patent publication US5496831, “Inhibition of insulin-induced adiposis” (The General Hospital Corporation).
